We go through six molecules from US20240376207A1 (JIANGSU HENGRUI PHARMACEUTICALS, published 2024).

Experiment [1] has as its target T1, human PVRIG expressed on cells (human, UniProt Q6DKI7 41-326).
T1 sequence (looked up): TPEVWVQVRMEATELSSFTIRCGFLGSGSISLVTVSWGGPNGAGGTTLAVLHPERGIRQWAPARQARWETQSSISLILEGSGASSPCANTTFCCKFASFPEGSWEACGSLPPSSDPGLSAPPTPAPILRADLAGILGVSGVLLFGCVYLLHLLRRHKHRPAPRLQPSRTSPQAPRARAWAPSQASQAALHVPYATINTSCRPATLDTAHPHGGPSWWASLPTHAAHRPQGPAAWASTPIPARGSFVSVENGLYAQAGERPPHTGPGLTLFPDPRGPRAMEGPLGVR
The experiment can be described thus: cell-based or functional assay.

In experiment [2] the target is T2, human TIGIT antigen (AcroBiosystem, TIT-H52H3) (human, UniProt Q495A1 22-141).
T2 sequence (looked up): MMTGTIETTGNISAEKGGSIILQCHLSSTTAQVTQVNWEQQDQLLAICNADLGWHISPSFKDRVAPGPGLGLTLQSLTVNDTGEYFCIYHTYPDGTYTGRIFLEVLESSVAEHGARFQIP
The experiment can be described thus: SPR (Biacore X100), antibody captured on Protein A chip, 1:1 fit. The text has this:
(§1) The affinity of the humanized bispecific antibodies for human PVRIG, cynomolgus monkey PVRIG and human TIGIT was detected using Biacore. Humanized bispecific antibodies were each captured on a Protein A biosensor chip (GE lifesciences, 29127557) of a Biacore instrument (Biacore X100, GE), and then human PVRIG antigen (AcroBiosystem, PVG-H52H4), cynomolgus monkey PVRIG antigen (SEQ ID NO: 1), or human TIGIT antigen (AcroBiosystem, TIT-H52H3) at a series of concentration gradients each flowed over the chip surface. The reaction signals were detected in real time using a Biacore instrument (Biacore X100, GE) to obtain association and dissociation curves. The data obtained from the experiment were fitted using the (1:1) Binding model with the BiacoreX100 evaluation software 2.0 GE to obtain affinity values (see Table 31).

Experiment [3] addresses T3, his-tagged cynomolgus monkey PVRIG (cyno-PVRIG-his) recombinant protein (cynomolgus monkey).
T3 construct: expressed in HEK293, purified by Ni-NTA; also called Monkey PVRIG-his; cynomolgus monkey PVRIG recombinant protein
T3 chain: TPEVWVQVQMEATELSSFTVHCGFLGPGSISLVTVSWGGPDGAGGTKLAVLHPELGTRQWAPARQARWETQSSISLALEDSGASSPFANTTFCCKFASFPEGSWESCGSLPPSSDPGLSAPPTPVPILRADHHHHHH
The experiment is described as above.
Description: as §1

For experiment [4], the target named is T4, human TIGIT recombinant protein (human, UniProt Q495A1 22-141, limits assumed).
T4 construct: construct not described; also called human TIGT recombinant protein
T4 sequence (looked up): T2 sequence (looked up)
In words: competition ELISA; human TIGIT, competitor human PVR. Here is the method: The h-PVRIG-mIgG2a Fc protein (at a concentration of 1 μg/mL) was coated on the 96-well microplate at 100 μL per well, and incubated overnight at 4° C. The plate was washed three times with wash buffer at 250 μL per well. For each wash, the plate was shaken for 10 s to ensure adequate cleaning. A blocking solution was added at 300 μL/well, and the plate was incubated at room temperature for 1 h. The plate was washed three times with wash buffer at 250 μL per well. For each wash, the plate was shaken for 10 s to ensure adequate cleaning. 50 μL of diluted test anti-PVRIG antibody and 50 μL of his-tagged ligand PVRL2 were added to each well, and the plate was incubated at 37° C. for 1 h. The plate was washed three times with wash buffer at 250 μL per well. The HRP-labeled anti-his-tagged secondary antibody (Genscrpit) diluted at 1:2000 was added at 100 μL per well. The plate was incubated at 37° C. for 1 h. The plate was washed three times with wash buffer at 250 μL per well. TMB was added at 100 μL/well, and the plate was incubated in the dark for 15 min. 0.16 M sulfuric acid was added at 50 μL/well. OD values at 450 nm were measured using a Thermo MμtLtiSkanFc microplate reader, and the IC₅₀ values of the anti-PVRIG antibodies blocking the binding of PVRIG to PVRL2 were calculated.
Similarly to Examples 4, 5 and 6, the binding of humanized anti-PVRIG/TIGIT bispecific antibodies to human and cynomolgus monkey TIGIT and blocking of binding of human TIGIT to ligand were detected, where PVRIG protein was replaced with TIGIT and PVRL2 was replaced with PVR.
Background: ELISA stands for enzyme-linked immunosorbent assay.

The target in experiment [5] is T5, cynomolgus monkey PVRIG expressed on cells (cynomolgus monkey, UniProt A0A2K5WVV8 1-322).
T5 construct: whole, on cells; also called Monkey PVRIG FACS; cells overexpressing cynomolgus monkey PVRIG
T5 sequence: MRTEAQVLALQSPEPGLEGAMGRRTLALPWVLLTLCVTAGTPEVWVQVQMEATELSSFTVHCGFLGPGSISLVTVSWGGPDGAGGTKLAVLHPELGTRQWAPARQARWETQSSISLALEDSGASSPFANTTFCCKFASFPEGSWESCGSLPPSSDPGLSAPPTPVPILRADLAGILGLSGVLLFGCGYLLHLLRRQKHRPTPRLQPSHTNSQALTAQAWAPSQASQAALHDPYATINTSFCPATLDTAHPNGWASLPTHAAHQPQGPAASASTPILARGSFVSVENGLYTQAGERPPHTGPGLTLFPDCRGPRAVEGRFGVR
The experiment can be described thus: FACS, cells overexpressing target. (In general: In flow cytometry, cells or beads pass a laser one at a time.)

The target of experiment [6] is T1, human PVRIG expressed on cells. In words: cell-based or functional assay. The source holds these as a separate data set.

Where two headings read alike, the source gives them in different places.

B1: anti-PVRIG antibody 151 (antibody, human IgG4 S228P, F234A L235A, V domains shown)
VH: HVQLVESGGGSVQAGGSLRLSCVASASGFTYRPYCMAWFRQAPGKEREAVAGIDIFGGTTYADSVKGRFTASRDNAGFSLFLQMNDLKPEDTAMYYCAAGDSPDGRCPPLGQGLNYWGQGTQVTVSS
notes: no light chain
B1: in experiment [1], the “NK92 killing of K562, killing activity (%), 4 nM antibody” value (from here on “NK92 killing … (%), 4 nM antibody”) was 20.9%; the “NK92 killing of K562, killing activity (%), 20 nM antibody” value (“NK92 killing … (%), 20 nM antibody” for short) was 22.9%; the “NK92 killing of K562, killing activity (%), 100 nM antibody” value (from here on “NK92 killing … (%), 100 nM antibody”) is 24.2%.

B2: humanized anti-PVRIG/TIGIT bispecific antibody 1708-20H5 (bispecific antibody, human IgG4 S228P, kappa)
heavy: not shown
light: DIQMTQSPSSLSASVGDRVTITCRASENIYSYLAWYQQKPGKSPKLLIYNARTLAEGVPSRFSGSGSGTDFTLTISSLQPEDFATYYCQYHSGSPLPFGGGTKVEIKRTVAAPSVFIFPPSDEQLKSGTASVVCLLNNFYPREAKVQWKVDNALQSGNSQESVTEQDSKDSTYSLSSTLTLSKADYEKHKVYACEVTHQGLSSPVTKSFNRGEC
One may read the Kd as a measure of binding affinity in units of concentration. As a reminder, the koff is the first-order rate constant of dissociation. By kon is commonly meant the second-order rate constant of association. As usually defined, the IC50 is the concentration that inhibits the measured activity by half. A word on the EC50: it is the concentration that produces a half-maximal response. In experiment [2], B2 returned a dissociation constant (Kd) of 0.0763 nM, a koff of 0.00015 s⁻¹ and a kon of 1.97e+06 M⁻¹ s⁻¹. Moreover, in experiment [3], the equilibrium dissociation constant (Kd) came out at 7.05 nM, the off-rate (koff) was found to be 0.181 s⁻¹ and the kon turned out to be 2.56e+07 M⁻¹ s⁻¹. Besides, the IC50 in experiment [4] is 1.02 nM. The same molecule yielded a concentration giving a half-maximal response (EC50) in experiment [5] of 0.07 nM.

B3: humanized anti-PVRIG/TIGIT bispecific antibody 1708-30H2 (bispecific antibody, human IgG4 S228P, kappa)
heavy: not shown
light: B2 light
In experiment [2], B3 gave a Kd of 0.0512 nM, a koff of 0.000158 s⁻¹ and a kon of 3.08e+06 M⁻¹ s⁻¹. In addition, in experiment [3], the Kd stood at 31.9 nM, the koff came to 0.581 s⁻¹ and the kon amounted to 1.82e+07 M⁻¹ s⁻¹. In experiment [4], the 50% inhibitory concentration (IC50) is 1.01 nM. For the same molecule, the midpoint of the response in experiment [5], the EC50, lay at 3.54 nM.

B4: anti-PVRIG antibody 39 (antibody, human IgG4 S228P, F234A L235A, V domains shown)
VH: QVQLVESGGGSVQAGGSLRLSCAASRYTSRTDCMGWFRQAPGKEREGVAHIDSDGIPRYVESVKGRFTISQDHAKNTLYLQMNSLKPEDSATYYCVVGFKFGDYCAPNDWGQGTQVTVSS
notes: no light chain
On to B4, for which, in experiment [1], the “NK92 killing … (%), 4 nM antibody” value turned out to be 21.3%; the “NK92 killing … (%), 20 nM antibody” value turned out to be 22.7%; the “NK92 killing … (%), 100 nM antibody” value worked out at 22.8%.

B5: positive antibody Tab5 (antibody, human IgG4 S228P, kappa, F234A L235A, V domains shown)
VH: EVQLVESGGGVVKPGGSLRLSCAASGFTFGTSSMNWVRQAPGKGLEWVAVISFDGTEIHYADSVKGRFTISRDNSKSTVFLQMNSLRPDDTALYYCAKGSGNIYFYSGMDVWGQGTTVTVSS
VL: DIQMTQSPSTLSASVGDRVTITCRAGQSISGWLAWFQQKPGKAPNLLIYETSTLESGVPSRFSGSGSGTEYTLTISSLQPDDFATYYCQQYYSYPLTFGQGTKVEIKR
notes: Variable regions of CPA.7.021 (WO2016134333A1) on human IgG4 (S228P/F234A/L235A/K447A) and human kappa constant regions
As to B5, in experiment [6], the “NK92 killing … (%), 4 nM antibody” value amounted to 5.9%; the “NK92 killing … (%), 20 nM antibody” value was 7.9%; the “NK92 killing … (%), 100 nM antibody” value amounted to 10%.

B6: anti-PVRIG antibody 30 (antibody, human IgG4 S228P, F234A L235A, V domains shown)
VH: HVQLVESGGGSVQAGGSLRLSCEASGYSYSGDCMGWFRRAPGKERDEGVATIDNAGRIKYADSVKGRFTISHGNGKYILYLQMNSLKPEDTDMYYCAAGWTFGGNCSPADWGQGTQVTVSS
notes: no light chain
Consider B6, for which, in experiment [6], the “NK92 killing … (%), 4 nM antibody” value worked out at 10.4%; the “NK92 killing … (%), 20 nM antibody” value is 11.9%; the “NK92 killing … (%), 100 nM antibody” value is 13.3%.
